Source: patent US20200140851A1 (Scripps Research, published 2020)

Target: T1, mouse vimentin (VIM from wild-type C57BL/6J mouse bone marrow lysates) (mouse, UniProt P20152 2-466)
T1 construct: Endogenous protein in bone marrow lysate, denatured for SDS/PAGE and Western blot
Assay: Western blot of bone marrow lysate
Description: To identify the protein recognized by the B1 antibody, antibodies were produced recombinantly in Expi293F cells. Purified B1 antibody (at a concentration of about 5-10 μg/ml) was incubated with human CD34⁺ cells, and immune complexes from cellular lysates were captured on a protein A/G column. Proteins that reacted with the antibody were identified by silver staining of SDS gels and their identity determined by mass spectrometry (MS). Three candidate proteins were identified above the background threshold (FIG. 5A). Vimentin (VIM) was one of the top hits and was confirmed to be B1 target antigen of B1 Ab by Western blotting. […] Also, VIM expression was found in human CD34⁺ cells by immunofluorescence cytochemistry using B1 or commercial VIM antibodies (FIG. 5C). The amino acid sequence identity between mouse and human VIM is greater than 97%.
Western blot: Cells were washed with PBS and then lysed in lysis buffer (50 mM Hlepes, pH 7.2, 150 mM NaCl, 50 mM NaF, 1 mM Na3VO₄, 10% glycerol, 1% Triton X-100). The lysates were then centrifuged at 12,000×g for 15 min at 4° C. The proteins were denatured in Laemmli sample buffer (5 min at 95° C.), separated by SDS/PAGE, and transferred to nitrocellulose membranes using the iBlot blotting system (Invitrogen). […]

T1 sequence (P20152 2-466 limits assumed): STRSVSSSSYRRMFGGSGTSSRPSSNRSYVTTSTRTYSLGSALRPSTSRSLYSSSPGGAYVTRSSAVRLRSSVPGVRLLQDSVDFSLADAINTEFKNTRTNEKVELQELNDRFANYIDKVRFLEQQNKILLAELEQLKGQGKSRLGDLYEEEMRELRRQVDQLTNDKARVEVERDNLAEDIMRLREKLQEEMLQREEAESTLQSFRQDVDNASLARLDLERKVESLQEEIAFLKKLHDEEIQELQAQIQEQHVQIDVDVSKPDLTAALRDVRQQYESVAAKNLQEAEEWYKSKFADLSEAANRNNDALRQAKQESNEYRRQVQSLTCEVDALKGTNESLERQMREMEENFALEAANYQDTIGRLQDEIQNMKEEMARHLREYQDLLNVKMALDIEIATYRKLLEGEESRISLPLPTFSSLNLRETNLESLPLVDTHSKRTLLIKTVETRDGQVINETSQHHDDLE

binding result: binds
B1: B1 antibody (Fc fusion)
scFv: MAQVQLLESGGGLVQPGGSLTLACAASGFNFNNYNMNWVRQAPGRGLEWVAFISSAADTVHYADSVEGRFTISRDNAKNSLYLHMNSLRDEDTAVYYCARQLLYWGQGTLVTVSSGGGGGSQAVLTQPSSLSASPGASVSLTCTLRSGINVGAYRIYWYQQKPGSPPQFLLRYKSDSDKQQGSGVPSRFSGSRDASANAGILLISWLRSEDEADYYCAIWHSSAWVFGGGTQLTVLG
notes: also called B1 Ab; B1Ab; not shown: Fc tag of the purified ScFv-Fc fusion protein
